Laboratory results reported in patent US9777041B2, “Protein nanofibers from self-assembling pentamers” (New York University, priority 2013, dated 2017).

Assays:
[1] = Curcumin binding fluorescence; conditions: in the presence of Zn^2+
Description: FIG. 40. Fluorescence of C and Q or with incorporated trifluoroleucine/TFL (C TFL and Q TFL) in the presence of no metal, Ni (II), or Zn (II) and curcumin. An increase in fluorescence indicates structural stability of the protein as it is able to bind with curcumin, the fluorescent probe in this case.

[2] = ATR-FTIR secondary structure of solid-state protein; assay type: physicochemical; conditions: 10 μM protein in 50 mM PB
Experimental: Attenuated Total Reflectance Fourier Transform Infrared Spectroscopy (ATR-FTIR): ATR-FTIR experiments were performed using Perkin Elmer System 2000 FT-IR with DuraSamplIR II T diamond ATR accessory and equipped with a MCT-A detector. Approximately, 5 μL of peptide solution (10 μM in 50 mM PB, pH 4, 8, and 10) was added on the diamond ATR surface. The spectrum (128 scans) was measured at room temperature over a range of 4000-400 cm^−1 with 0.5 cm^−1 resolution. PeakFit software was used to process the data, which involved a 2nd derivative zero baseline correction of the amide I region between 1700-1600 cm^−1 and deconvolution of peaks with a Gaussian function. All readings represent the average of two trials.
To quantifying the secondary structure of the protein in its solid-state, ATR-FTIR experiments were conducted to evaluate secondary structure of insoluble Q fibers at pH 4, 8, and 10 (Table 8). The frequency measured in the regions of the amide I and amide II absorptions of a protein correlate to the secondary structural motifs within the protein, and were thereby used to assess conformation of the protein in its solid-state (FIGS. 20a-20d). Secondary structure conformation based on ATR-FTIR data for Q in 50 mM PB at pH 4, 8, and 10, and in the presence of curcumin at a 5:1 molar ratio with Q at pH 4 are shown in […]. Percent composition was determined from relative areas of peaks fit to spectra (FIGS. 20a-20d).
Secondary structure conformation based on ATR-FTIR data for 10 μM protein in 50 mM PB before and after templation of AuNPs is provided in Table 10. Percent composition was determined from relative areas of peaks fit to spectra (see spectra FIGS. 37a-37d, FIGS. 38a-38d).

[3] = Transmission electron microscopy of protein fibers; assay type: physicochemical; conditions: for fiber formation seen by TEM: pH 4, 50 mM PB
Experimental: Transmission electron microscopy: A JEOL JEM-1400 transmission electron microscope (TEM) was used to study the supramolecular protein structure. […] After 1 minute, the grids were blotted using filter paper and rinsed with 3-4 drops Milli Q water to remove excess salts from the buffer. After blotting with filter paper, the sample was negatively stained by adding 3 μL of 1% filtered uranyl acetate, blotted using filter paper, and dried at room temperature for 10-15 minutes. ImageJ software was used to measure the fibers dimensions.

[4] = Confocal microscopy of protein fibers in the presence of curcumin; assay type: physicochemical; conditions: protein:curcumin 1:5, 50 mM phosphate buffer pH 4
Experimental: FIGS. 7a-7c show confocal microscopy of CC, Q54, and COMPcc^S wt, in the presence of curcumin. The mixture of protein to curcumin were all at a ratio of 1:5. […] All different proteins are in 50 mM phosphate buffer, pH 4. Protein and curcumin samples were combined and incubated for 12 hours prior to imaging. […] The width of COMPcc^S wt shown in FIG. 7c was determined to be 12.72 μm. […] Overall, Q54 fibers appeared to be more uniform in width, as well as more robust and consistent in fiber formation.
Confocal microscopy: Samples were imaged using a Leica TCS SP2 AOBS confocal microscope system equipped with argon ion and HeNe lasers. A 63×/1.4 NA oil-immersion objective was used for all of the images. Lab-Tek II chambered #1.5 German coverglass system was used as the imaging slide. Curcumin was excited using the 458 nm line of the argon laser, and images were taken with the detection window set between 465 and 560 nm. The pinhole aperture was set at an Airy value of 1.0, which was equivalent to sampling an ˜500 nm vertical z slice of the fiber, as estimated by the axial resolution, rz,confocal≈1.4λcm n/NA^2 (NA, numerical aperture; n, refractive index; λcm, emission wavelength (525 nm)). Interference contrast images were obtained using the Leica tube optics HC 1×/B apparatus with a focusing Bertrand lens. The 3D reconstructions were constructed using ImageJ 64 1.43 in concert with Amira 5.43, employing the Volren 3D rendering routine.

[5] = Circular dichroism wavelength scans (secondary structure); assay type: physicochemical; conditions: for −θ222 × 10^3 / −θmin × 10^3: 10 μM protein; for random coil / α helices / β sheet: CD, K2D method
Experimental: (§1) Circular dichroism: Circular dichroism (CD) measurements were conducted on a Jasco J-815 CD spectrometer. Wavelength and temperature scans were conducted with 10 μM (6.3×10^−2 mg/mL) protein concentrations. The wavelength spectrum was measured over a range from 190 to 250 nm with a step size of 1 nm Mean residue ellipticity (MRE) was calculated from raw data according to the procedure described in Gunasekar et al. 2009. Secondary structure analysis of α-helical, β-sheet, and random coil content was calculated with the K2D method using DichroWeb software. Temperature scans of each protein were performed over a range of 20-85° C. with a temperature step of 1° C./min at 222 nm. Scans were also performed at of 2° C./min and 5° C./min to evaluate dependence of thermal melt signatures on scan speed. All measurements were made in duplicates of independently prepared proteins and data represents the average. Thermodynamic properties of wt and Q were determined through analysis of thermal melts. A two-state model was used, where assumptions included monophasic behavior and reversible melting behavior. These assumptions were confirmed experimentally by melting (from 20 to 85° C.) and cooling (from 85 to 20° C.) the proteins. Calculation of thermodynamic parameters including Tm, ΔG°, ΔH°, and ΔS° were performed according to the method described by Greenfield.
To assess the secondary structure of the proteins under acidic as well as neutral and basic conditions in solution, CD measurements were performed. […] The presence of residue P28 towards the center of Q may have influenced the secondary structure, showing decreased helical content when compared to wt at pH 4 and 10 (FIG. 16). The negative control, L, was completely unstructured, devoid of helical content at pH 4 (FIG. 11). […] As the pH increased, the helical content of soluble Q protein increased.
Mean residual ellipticities from circular dichroism measurements at pH 4, 8, and 10 for wt, L, and Q. The data presented in Table 5 represents the average and standard deviation of at least two replicates.

[6] = without any evidence for protofibrils; cited from earlier work
[7] = Circular dichroism thermal melts at 222 nm, van't Hoff analysis; assay type: physicochemical; conditions: for Tm: 10 μM protein; for ΔG° (free energy of folding): at 25° C.; for ΔS°: ΔS° = ΔH°/Tm
Experimental: as §1
Thermodynamic properties were assessed via thermal melt of the proteins at 222 nm. Prior to calculating thermodynamic constants, assumptions of monophasic behavior and melt reversibility were confirmed experimentally for wt and Q at all pHs by melting and cooling proteins (FIGS. 18a-18d). The van't Hoff equation was applied to thermal melts of the proteins in the range of 20-85° C.

For “C: CC protein, SEQ ID NO:1, variant of COMPcc; coiled-coil forming homopentamers (MRGSHHHHHHGSIEGRAPQMLRELQETNAALQDVRELLRQQVKEITFLKNTSKL)”, the “binding to small molecule (curcumin fluorescence)” value [1] was “substantially increase the binding to small molecule”, the “Random, percent composition” value ([2]; +AuNP (after templation)) was 16% and the “α helix, percent composition” value ([2]; +AuNP (after templation)) was 30%. The “β sheet, percent composition” value ([2]; +AuNP (after templation)) was 54%, the “Random, percent composition” value ([2]; before templation of AuNPs) was 28% and the “α helix, percent composition” value ([2]; before templation of AuNPs) was 38%. The “β sheet, percent composition” value ([2]; before templation of AuNPs) was 33%, the “fiber formation seen by TEM” value [3] was “not been observed to form fibers” and the “average width of protein fibers” value ([4]; 20 mM protein, 100 mM curcumin, 12 hours) was 19.24±12 μm.

With “L: L44 protein, SEQ ID NO:3, variant of COMPcc; negative control swap protein (MRGSHHHHHHGSIEGRLQDVERLLRQQVKEITFLKNTAPQMLRELQETNAASKL) [reference compound]” the “−θ222 × 10^3” value ([5]; pH 4) was −0.41 10^3 deg cm^2 dmol^-1, the “−θmin × 10^3” value ([5]; pH 4) was 5.18 10^3 deg cm^2 dmol^-1 and the random coil ([5]; pH 4) was 43%. For the same molecule, the α helices ([5]; pH 4) was 9%, the β sheet ([5]; pH 4) was 49% and the “−θ222 × 10^3” value ([5]; pH 8) was 3.54 10^3 deg cm^2 dmol^-1. The “−θmin × 10^3” value ([5]; pH 8) was 4.14 10^3 deg cm^2 dmol^-1, the random coil ([5]; pH 8) was 49% and the α helices ([5]; pH 8) was 13%. For the same molecule, the β sheet ([5]; pH 8) was 38%, the “−θ222 × 10^3” value ([5]; pH 10) was 3.40 10^3 deg cm^2 dmol^-1 and the “−θmin × 10^3” value ([5]; pH 10) was 3.89 10^3 deg cm^2 dmol^-1. The random coil ([5]; pH 10) was 52%, the α helices ([5]; pH 10) was 16% and the β sheet ([5]; pH 10) was 32%. For the same molecule, the “fiber formation seen by TEM” value [3] was “not been observed to form fibers” and the “fiber formation seen by confocal microscopy” value [4] was “No fibers were seen”.

With “Qx: variant of Q54 void of the 6×his tag, SEQ ID NO:6 (VKEITFLKNTAPQMLRELQETNAALQDVRELLRQQSKL)” the “Random, percent composition” value ([2]; +AuNP (after templation)) was 20%, the “α helix, percent composition” value ([2]; +AuNP (after templation)) was 48% and the “β sheet, percent composition” value ([2]; +AuNP (after templation)) was 32%. For the same molecule, the “Random, percent composition” value ([2]; before templation of AuNPs) was 29%, the “α helix, percent composition” value ([2]; before templation of AuNPs) was 45% and the “β sheet, percent composition” value ([2]; before templation of AuNPs) was 26%.

B1: wt: coiled-coil region of cartilage oligomeric matrix protein with the two cysteines replaced by serines, SEQ ID NO:4 (protein)
chain: MRGSHHHHHHGSGDLAPQMLRELQETNAALQDVRELLRQQVKEITFLKNTVMESDASGKLN
modifications: human
In the case of B1, the “fiber diameters (known)” value [6] is given as 10-15 nm, the “−θ222 × 10^3” value ([5]; pH 4) is given as 13.18 10^3 deg cm^2 dmol^-1 and the “−θmin × 10^3” value ([5]; pH 4) is given as 13.02 10^3 deg cm^2 dmol^-1. The random coil ([5]; pH 4) was 32%, the α helices ([5]; pH 4) was 50% and the β sheet ([5]; pH 4) was 18%. For the same molecule, the “−θ222 × 10^3” value ([5]; pH 8) was 18.28 10^3 deg cm^2 dmol^-1, the “−θmin × 10^3” value ([5]; pH 8) was 17.61 10^3 deg cm^2 dmol^-1 and the random coil ([5]; pH 8) was 30%. For the same molecule, the α helices ([5]; pH 8) was 64%, the β sheet ([5]; pH 8) was 6% and the “−θ222 × 10^3” value ([5]; pH 10) was 17.84 10^3 deg cm^2 dmol^-1. For the same molecule, the “−θmin × 10^3” value ([5]; pH 10) was 17.13 10^3 deg cm^2 dmol^-1, the random coil ([5]; pH 10) was 31% and the α helices ([5]; pH 10) was 63%. For the same molecule, the β sheet ([5]; pH 10) was 6%, the “ΔH° (van't Hoff enthalpy)” value ([7]; pH 4) was -29.9 kcal/mol and the Tm ([7]; pH 4) was 48.2 °C. The “ΔG° (free energy of folding)” value ([7]; pH 4) was -2.2 kcal/mol, the ΔS° ([7]; pH 4) was -93 cal/(mol·K) and the “ΔH° (van't Hoff enthalpy)” value ([7]; pH 8) was -31.0 kcal/mol. For the same molecule, the Tm ([7]; pH 8) was 48.8 °C, the “ΔG° (free energy of folding)” value ([7]; pH 8) was -2.3 kcal/mol and the ΔS° ([7]; pH 8) was -96.6 cal/(mol·K). For the same molecule, the “ΔH° (van't Hoff enthalpy)” value ([7]; pH 10) was -29.8 kcal/mol, the Tm ([7]; pH 10) was 46.3 °C and the “ΔG° (free energy of folding)” value ([7]; pH 10) was -2.0 kcal/mol. The ΔS° ([7]; pH 10) was -93.3 cal/(mol·K), the fiber diameters ([3]; pH 8, 10 mM PB) was 17±3 nm and the width of fibers ([4]; 12 hours) was 12.72 μm.
